Assays:
AncSZ = assay: phosphorylation enrichment, bacterial display (enrichment ratio); higher = better substrate or ligand; peptides without Tyr show the background
EPHB1 = EPHB1 (UniProt P54762); assay: as above
EPHB2 = EPHB2 (UniProt P29323); assay: as above
FGFR1 = FGFR1 (UniProt P11362); assay: as above
FGFR3 = FGFR3 (UniProt P22607); assay: as above
Fer (mouse) = assay: as above
Fes = Fes (UniProt P07332); assay: as above
Fyn = Fyn (UniProt P06241); assay: as above
Hck = Hck (UniProt P08631); assay: as above
Jak2 = Jak2 (UniProt O60674); assay: as above
MERTK = MERTK (UniProt Q12866); assay: as above
c-Abl (mouse) = assay: as above
c-Src = assay: as above
Grb2 SH2 = Grb2 SH2 (UniProt P62993); assay: SH2 binding enrichment of the phosphorylated peptide, bacterial display (enrichment ratio); higher = better substrate or ligand; peptides without Tyr show the background
SHP2-C SH2 = assay: as above
c-Src SH2 = assay: as above
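Throughout, for SH2 binding enrichment of the phosphorylated peptide, bacterial display: peptide library displayed on the E. coli surface as eCPX fusions, selected cells deep-sequenced, score is each peptide's frequency after selection divided by its frequency in the input.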
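Throughout, for phosphorylation enrichment, bacterial display: 11-residue human phosphosite peptides and single-mutation variants displayed on the E. coli surface, counted by deep sequencing, each peptide's frequency after selection divided by its frequency in the unselected input library; frequency after pTyr selection over input frequency; kinase dosed for 20-30% of maximal phosphorylation in three min.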

FGFR3, sequence (P22607 whole entry, looked up): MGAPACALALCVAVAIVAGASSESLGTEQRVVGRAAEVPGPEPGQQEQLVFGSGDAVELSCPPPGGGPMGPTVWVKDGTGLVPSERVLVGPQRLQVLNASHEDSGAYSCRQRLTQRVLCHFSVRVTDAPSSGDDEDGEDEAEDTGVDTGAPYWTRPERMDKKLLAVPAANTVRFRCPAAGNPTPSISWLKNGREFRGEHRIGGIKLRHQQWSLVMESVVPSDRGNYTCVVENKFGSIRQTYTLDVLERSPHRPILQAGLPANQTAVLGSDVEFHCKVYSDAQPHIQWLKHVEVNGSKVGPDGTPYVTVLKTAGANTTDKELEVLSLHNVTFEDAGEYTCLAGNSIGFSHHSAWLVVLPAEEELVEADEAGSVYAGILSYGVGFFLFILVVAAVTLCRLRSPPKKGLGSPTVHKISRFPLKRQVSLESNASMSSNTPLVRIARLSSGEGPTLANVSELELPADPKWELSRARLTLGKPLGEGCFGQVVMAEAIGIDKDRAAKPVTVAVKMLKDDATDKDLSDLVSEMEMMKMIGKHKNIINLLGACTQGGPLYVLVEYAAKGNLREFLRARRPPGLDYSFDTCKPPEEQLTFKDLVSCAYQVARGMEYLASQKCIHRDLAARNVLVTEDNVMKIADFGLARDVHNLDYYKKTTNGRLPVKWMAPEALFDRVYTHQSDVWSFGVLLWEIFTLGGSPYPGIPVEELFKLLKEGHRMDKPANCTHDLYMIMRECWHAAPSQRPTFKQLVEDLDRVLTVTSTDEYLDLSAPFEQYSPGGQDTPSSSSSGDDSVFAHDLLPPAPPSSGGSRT
FGFR1, sequence (P11362 whole entry, looked up): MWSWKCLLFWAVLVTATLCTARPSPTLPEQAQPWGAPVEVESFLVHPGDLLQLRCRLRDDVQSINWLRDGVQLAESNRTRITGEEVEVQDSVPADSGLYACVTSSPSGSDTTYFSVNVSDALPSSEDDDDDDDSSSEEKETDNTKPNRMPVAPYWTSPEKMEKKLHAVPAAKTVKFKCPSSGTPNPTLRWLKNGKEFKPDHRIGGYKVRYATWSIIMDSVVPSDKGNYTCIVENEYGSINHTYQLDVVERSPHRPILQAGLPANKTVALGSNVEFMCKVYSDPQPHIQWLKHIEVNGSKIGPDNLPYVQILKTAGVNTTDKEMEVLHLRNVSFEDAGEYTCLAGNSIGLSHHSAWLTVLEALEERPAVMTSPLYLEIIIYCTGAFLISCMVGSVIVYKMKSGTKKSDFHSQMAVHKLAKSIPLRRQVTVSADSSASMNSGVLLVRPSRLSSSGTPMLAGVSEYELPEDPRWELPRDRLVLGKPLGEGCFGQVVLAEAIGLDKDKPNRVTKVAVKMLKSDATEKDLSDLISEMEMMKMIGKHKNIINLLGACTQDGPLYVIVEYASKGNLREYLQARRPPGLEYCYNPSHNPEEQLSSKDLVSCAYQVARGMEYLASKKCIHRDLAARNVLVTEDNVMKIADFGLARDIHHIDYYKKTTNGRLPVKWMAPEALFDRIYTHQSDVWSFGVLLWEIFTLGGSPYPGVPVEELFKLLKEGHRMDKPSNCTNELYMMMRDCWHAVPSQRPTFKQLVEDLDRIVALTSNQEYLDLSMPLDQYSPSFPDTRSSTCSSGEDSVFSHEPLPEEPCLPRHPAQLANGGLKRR
Hck, sequence (P08631 whole entry, looked up): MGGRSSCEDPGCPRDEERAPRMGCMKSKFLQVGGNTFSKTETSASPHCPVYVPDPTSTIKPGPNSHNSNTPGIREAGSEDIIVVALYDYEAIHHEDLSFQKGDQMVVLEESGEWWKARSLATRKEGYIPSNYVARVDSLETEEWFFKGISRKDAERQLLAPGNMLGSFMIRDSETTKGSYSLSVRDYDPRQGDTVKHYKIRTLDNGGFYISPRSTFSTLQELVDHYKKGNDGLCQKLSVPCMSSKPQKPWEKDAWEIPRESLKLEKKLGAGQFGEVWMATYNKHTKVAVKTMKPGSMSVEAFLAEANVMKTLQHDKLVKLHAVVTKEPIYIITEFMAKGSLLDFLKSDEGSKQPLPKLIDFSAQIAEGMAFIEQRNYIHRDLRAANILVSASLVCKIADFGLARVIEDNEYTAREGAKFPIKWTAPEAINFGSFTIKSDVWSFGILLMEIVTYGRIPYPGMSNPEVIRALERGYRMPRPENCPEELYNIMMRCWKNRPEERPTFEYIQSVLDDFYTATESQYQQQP
MERTK, sequence (Q12866 whole entry, looked up): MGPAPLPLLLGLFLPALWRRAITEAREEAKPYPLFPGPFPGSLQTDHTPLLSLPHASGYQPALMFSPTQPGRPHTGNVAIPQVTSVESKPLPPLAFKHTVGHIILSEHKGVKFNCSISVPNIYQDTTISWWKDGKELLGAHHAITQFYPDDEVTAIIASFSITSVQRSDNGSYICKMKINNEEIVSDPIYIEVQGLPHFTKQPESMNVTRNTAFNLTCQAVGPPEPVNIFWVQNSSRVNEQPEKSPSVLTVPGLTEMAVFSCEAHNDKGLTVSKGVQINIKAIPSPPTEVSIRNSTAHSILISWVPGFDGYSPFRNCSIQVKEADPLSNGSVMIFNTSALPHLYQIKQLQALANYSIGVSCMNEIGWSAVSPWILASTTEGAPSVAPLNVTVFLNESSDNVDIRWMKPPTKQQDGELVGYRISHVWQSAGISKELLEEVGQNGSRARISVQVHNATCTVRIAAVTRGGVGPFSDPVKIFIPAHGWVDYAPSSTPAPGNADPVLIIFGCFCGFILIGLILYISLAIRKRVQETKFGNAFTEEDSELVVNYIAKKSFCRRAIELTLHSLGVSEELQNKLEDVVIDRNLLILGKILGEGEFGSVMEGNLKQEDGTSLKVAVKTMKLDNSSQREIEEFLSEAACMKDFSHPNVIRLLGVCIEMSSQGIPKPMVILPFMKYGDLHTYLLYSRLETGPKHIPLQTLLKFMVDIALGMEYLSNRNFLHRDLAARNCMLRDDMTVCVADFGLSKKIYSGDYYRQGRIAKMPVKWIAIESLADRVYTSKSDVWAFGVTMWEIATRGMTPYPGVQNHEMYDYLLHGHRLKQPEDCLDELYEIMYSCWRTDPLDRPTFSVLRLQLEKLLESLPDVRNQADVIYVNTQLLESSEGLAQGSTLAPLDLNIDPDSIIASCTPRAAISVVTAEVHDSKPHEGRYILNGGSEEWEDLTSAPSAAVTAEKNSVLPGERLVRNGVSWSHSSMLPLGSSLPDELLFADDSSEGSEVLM
Jak2, sequence (O60674 whole entry, looked up): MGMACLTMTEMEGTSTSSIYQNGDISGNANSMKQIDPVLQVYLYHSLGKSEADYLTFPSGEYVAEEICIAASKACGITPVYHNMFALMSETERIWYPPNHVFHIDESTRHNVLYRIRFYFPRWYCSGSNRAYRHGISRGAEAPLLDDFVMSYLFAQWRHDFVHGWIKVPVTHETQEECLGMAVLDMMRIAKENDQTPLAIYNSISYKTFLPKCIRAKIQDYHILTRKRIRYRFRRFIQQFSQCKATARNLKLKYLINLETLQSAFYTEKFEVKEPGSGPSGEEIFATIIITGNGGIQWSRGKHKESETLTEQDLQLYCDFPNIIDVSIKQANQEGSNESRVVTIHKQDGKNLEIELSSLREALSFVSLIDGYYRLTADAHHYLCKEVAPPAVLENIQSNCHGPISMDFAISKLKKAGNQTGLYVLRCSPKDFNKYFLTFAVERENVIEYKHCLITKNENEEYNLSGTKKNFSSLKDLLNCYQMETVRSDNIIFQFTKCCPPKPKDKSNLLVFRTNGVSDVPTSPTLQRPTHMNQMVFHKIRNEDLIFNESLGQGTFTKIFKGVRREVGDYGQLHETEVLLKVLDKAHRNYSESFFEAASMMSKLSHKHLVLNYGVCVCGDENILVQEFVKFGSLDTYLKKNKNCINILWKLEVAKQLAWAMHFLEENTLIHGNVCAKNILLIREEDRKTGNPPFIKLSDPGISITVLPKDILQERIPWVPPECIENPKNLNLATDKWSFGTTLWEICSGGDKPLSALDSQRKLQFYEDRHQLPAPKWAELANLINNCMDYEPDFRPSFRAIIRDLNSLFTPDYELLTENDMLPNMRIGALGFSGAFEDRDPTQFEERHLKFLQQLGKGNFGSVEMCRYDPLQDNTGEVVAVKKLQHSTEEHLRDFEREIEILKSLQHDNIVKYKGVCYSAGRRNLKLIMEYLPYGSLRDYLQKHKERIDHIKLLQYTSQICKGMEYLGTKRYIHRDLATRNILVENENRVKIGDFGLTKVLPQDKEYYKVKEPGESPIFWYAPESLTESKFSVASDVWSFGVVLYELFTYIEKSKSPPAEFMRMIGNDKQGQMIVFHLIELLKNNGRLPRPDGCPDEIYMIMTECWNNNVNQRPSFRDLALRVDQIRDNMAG
Fyn, sequence (P06241 whole entry, looked up): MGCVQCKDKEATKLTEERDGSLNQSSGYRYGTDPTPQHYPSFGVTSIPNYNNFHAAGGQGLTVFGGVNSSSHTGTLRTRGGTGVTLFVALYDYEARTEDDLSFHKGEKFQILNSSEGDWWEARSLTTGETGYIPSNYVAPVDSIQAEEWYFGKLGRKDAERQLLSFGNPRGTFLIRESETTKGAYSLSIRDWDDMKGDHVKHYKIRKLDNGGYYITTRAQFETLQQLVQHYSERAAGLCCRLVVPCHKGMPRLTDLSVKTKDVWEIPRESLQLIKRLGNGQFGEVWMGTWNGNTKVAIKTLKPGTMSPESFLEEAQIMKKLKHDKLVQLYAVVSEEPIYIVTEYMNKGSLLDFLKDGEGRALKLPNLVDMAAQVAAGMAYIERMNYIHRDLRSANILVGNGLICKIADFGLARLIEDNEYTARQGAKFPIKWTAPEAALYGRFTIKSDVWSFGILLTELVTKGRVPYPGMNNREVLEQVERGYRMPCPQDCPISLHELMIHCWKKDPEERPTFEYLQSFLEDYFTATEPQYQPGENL

Sequence	SH2 binding enrichment (Grb2 SH2)	SH2 binding enrichment (SHP2-C SH2)	SH2 binding enrichment (c-Src SH2)	phosphorylation enrichment (AncSZ)	phosphorylation enrichment (EPHB1)	phosphorylation enrichment (EPHB2)	phosphorylation enrichment (FGFR1)	phosphorylation enrichment (FGFR3)	phosphorylation enrichment (Fer (mouse))	phosphorylation enrichment (Fes)	phosphorylation enrichment (Fyn)	phosphorylation enrichment (Hck)	phosphorylation enrichment (Jak2)	phosphorylation enrichment (MERTK)	phosphorylation enrichment (c-Abl (mouse))	phosphorylation enrichment (c-Src)
KKHFSYAWPFF [BRDT_Y291_YF]	1.8	2.15	1.77	1.03	0.467	0.494	0.545	0.653	0.487	1.13	0.428	0.428	0.976	1.64	0.661	0.529
KNILCYIQGGS [HYDIN_Y4610]	0.617	0.598	0.328	1.13	0.711	0.748	0.585	0.761	0.522	1.43	0.436	0.594	1.27	0.458	0.977	0.504
SFHCSYSEIKD [DCLRE1C_Y322_S320C]	0.704	2.29	3.86	1.06	0.599	0.59	0.558	0.811	0.639	1.21	0.585	0.568	0.9	0.497	0.873	0.647
EKKDVYKTGEQ [CFH_Y1008_A1010T]	0.771	0.494	0.376	0.7	0.394	0.411	0.478	0.524	0.447	0.663	0.471	0.561	0.437	0.382	0.42	0.438
VHNLDYFKQTT [FGFR3_Y647_K650Q_YF]	0.795	0.573	0.449	0.767	0.56	0.545	0.743	0.819	0.48	0.958	0.652	0.525	1.31	0.434	0.602	0.542
FFDANCDGKEF [MAPRE2_Y162_Y162C_YF]	0.687	3.8	0.54	1.26	0.573	0.62	0.455	0.662	0.521	1.27	0.973	0.58	1.11	0.472	1.09	0.537
FASALYGQRRS [FGF11_Y162_R163G_YF]	0.659	0.457	0.511	0.724	0.343	0.415	0.364	0.442	0.505	0.682	0.444	0.903	0.616	0.516	0.47	0.641
KYRREYILSLE [GPC3_Y299_W296R]	0.774	0.606	0.374	0.754	0.364	0.465	0.427	0.491	0.534	0.698	0.468	0.49	0.628	0.576	0.511	0.613
RLLVVYPWTQR [HBB_Y36]	1.99	2.05	1.41	1.09	0.553	0.632	0.591	0.722	0.5	1.06	0.574	0.497	0.967	0.523	0.77	0.53
ASFSLYEPAKM [MKI67_Y340_P338S]	1	0.793	0.613	1.27	6.24	5.28	0.518	0.563	9.33	1.28	1.27	3.48	0.954	0.769	0.825	1.25
VLRQVYVDFEG [KMT2B_Y1707_R1705Q]	0.833	1	0.938	1.16	0.877	0.722	0.721	0.871	0.579	1.28	1.85	0.86	0.993	0.465	0.692	1.42
FQLPFYNTVPS [BMPR1A_Y458_M460T_YF]	0.911	0.816	5.8	0.748	0.526	0.45	0.414	0.699	0.642	0.828	0.465	0.687	0.704	0.569	0.625	0.565
NTYEKYWLFYQ [GATM_Y103_P105L]	0.788	1.12	0.807	1.26	4.77	2.94	1.7	1.65	0.874	1.39	1.5	1.36	1.18	1.78	0.8	2.23

Second part, led by results:

SH2 binding enrichment (Grb2 SH2)	SH2 binding enrichment (SHP2-C SH2)	SH2 binding enrichment (c-Src SH2)	Sequence	phosphorylation enrichment (AncSZ)	phosphorylation enrichment (EPHB1)	phosphorylation enrichment (EPHB2)	phosphorylation enrichment (FGFR1)	phosphorylation enrichment (FGFR3)	phosphorylation enrichment (Fer (mouse))	phosphorylation enrichment (Fes)	phosphorylation enrichment (Fyn)	phosphorylation enrichment (Hck)	phosphorylation enrichment (Jak2)	phosphorylation enrichment (MERTK)	phosphorylation enrichment (c-Abl (mouse))	phosphorylation enrichment (c-Src)
0.997	0.791	0.638	EEETDYTPVWC [UROD_Y30_G25E]	1.58	0.689	0.589	0.554	0.876	0.771	1.25	0.484	0.578	1.16	0.504	0.937	0.503
0.84	0.611	1.56	REGKIYEYNQV [ZNF665_Y162_H157R]	0.799	0.716	0.929	0.707	0.898	15.9	0.788	1.41	1.12	0.494	3.19	1.07	1.19
0.805	0.662	0.592	EVQKDYEHLFK [PAM16_Y77_N76D]	0.885	0.511	0.525	0.498	0.582	0.421	0.804	0.478	0.514	0.71	0.462	0.62	0.491
1.04	0.888	0.721	HEKKAYAFCGT [RPS6KA3_Y226_S227A]	0.654	0.561	0.46	0.751	0.581	0.46	0.887	0.54	0.63	0.516	0.458	0.649	0.498
5.64	0.993	0.646	DMLTLYVNTAA [SMCHD1_Y403_Q400L]	1.4	0.758	0.775	0.569	0.855	0.535	1.36	0.457	0.557	1.13	0.444	0.766	0.524
0.667	0.662	0.419	SVTCTDSPALN [TP53_Y126_Y126D]	0.975	0.6	0.564	0.491	0.805	0.567	1.13	0.447	0.474	0.958	0.351	0.847	0.427
0.696	0.39	0.536	DVRQEYSGMIL [PLXND1_Y616_P617S]	0.795	0.432	0.531	0.504	0.565	0.567	0.891	0.434	0.498	0.678	0.35	0.484	0.477
0.745	0.719	0.543	ISRDVYSTDYY [NTRK2_Y702_M697I]	1.83	2.43	2.51	4.9	3.13	0.703	1.04	3.34	1.95	1.12	6.57	0.69	4.67
0.821	0.697	0.561	IDSTPYGQWFE [RPS8_Y109_R110G_YF]	1.27	0.621	0.722	0.713	0.89	0.712	1.18	3.54	1.52	0.998	0.473	0.657	3.56
1.01	0.609	0.46	PHRSIYFSSPK [MPG_Y75_Y71H]	0.498	0.674	0.61	0.803	0.927	0.663	0.859	0.982	1.48	0.584	0.687	0.862	0.786
0.775	0.495	0.48	SESSFYKSLNL [NGEF_Y289_A286S_YF]	1.06	0.598	0.516	0.477	0.816	0.562	1.25	0.479	0.521	1.06	0.468	0.853	0.508
0.881	0.628	1.44	DPNQQYYIAMD [TBX15_Y159_H156N]	1.12	0.875	0.719	3.98	2.95	0.487	0.992	0.566	0.613	0.959	1.65	0.571	0.812
0.644	0.746	0.374	FPPTHYIRRVP [SLC4A11_Y820_YF]	0.953	0.529	0.53	0.437	0.468	0.747	0.87	0.473	0.965	0.755	0.522	0.71	0.475
0.804	0.602	0.425	FRQNVYIPGSN [PCDHGA1_Y895_YF]	0.576	0.43	0.442	0.416	0.501	0.402	0.613	0.447	0.442	0.584	0.416	0.536	0.435
1.18	1.55	0.795	IWIFHYAKGQP [MPZ_Y82_S78W]	1.26	0.578	0.498	0.348	0.768	0.459	1.55	0.49	0.411	1.28	0.446	1.09	0.577
0.739	0.546	0.404	MHDSNYVSKGS [PDGFRA_Y849]	0.648	0.388	0.416	0.501	0.459	0.393	0.73	0.535	0.554	0.55	0.451	0.508	0.482
0.656	0.582	0.411	MAPQMYEFHLP [NCAPD2_Y6]	0.795	4.23	3.16	0.443	0.719	19.6	0.766	0.506	0.624	0.592	5.35	0.473	0.655
0.817	0.576	0.508	GGCQEYTGAPF [NAXD_Y85_YF]	1.17	0.541	0.618	0.526	0.8	0.587	1.14	0.464	0.506	0.817	0.456	0.636	0.528
0.592	0.702	0.515	PQQLWYTHKKK [UBTF_Y207_E210K]	1.14	0.774	1.14	0.888	0.589	0.598	1.14	0.52	0.821	1.07	1.22	0.981	0.7
0.839	0.815	0.806	DFPGNYSGFDD [POLR1C_Y33_YF]	0.858	0.927	0.531	0.456	0.637	0.408	0.899	0.55	0.481	0.676	0.376	0.588	0.548

From the supplement of paper PMC10065799, “High-throughput profiling of sequence recognition by tyrosine kinases and SH2 domains using bacterial peptide display” (eLife, 2023)
